Series [1] has as its system T1, E. coli BW25113 ΔbamBΔtolC.
T1 construct: BW25113 ΔbamBΔtolC empty vector pGDP4
In words: microbe, parasite or virus in culture. The settings on record: Escherichia coli, BW25113, 24 h; empty vector. As to the method: mphB was codon optimized, synthetized as a gBlock (IDT) and cloned into pET28a with an N-terminal histidine tag. The codon optimized mphB sequence is in Supplementary Table 17. mphI was previously cloned into pET22b[36]. pGDP4 is a derivative of pET28a with the multiple-cloning site under the control of the constitutive lac promoter. mphI was subcloned into pGDP4 using the XbaI and XhoI restriction sites. E. coli was routinely cultured on LB-Lennox (Bioshop) at 37 °C overnight, and either 100 µg mL^−1 ampicillin or 50 µg mL^−1 kanamycin was used for plasmid selection. E. coli TOP10 (Invitrogen) was used for routine cloning experiments and susceptibility testing of mphs cloned into pGDP4. E. coli BL21(DE3) (Stratagene, USA)was used for protein overexpression experiments. E. coli BW25113 ΔbamBΔtolC is an antibiotic hypersensitive, and was used for susceptibility testing of Mphs cloning into pGDP4. Antibiotic susceptibility testing was performed according to the Clinical and Laboratory Standards Institute guidelines[74] for determining minimal inhibitory concentration (MIC) in 96-well plates (Sarstedt, Germany) in duplicate. MIC values were reproducible. A saline suspension of OD600 of 0.1 was made from 2–3 colonies of a fresh overnight, and diluted 1:200 into Mueller-Hinton Broth (BD Biosciences). […] Susceptibility assays were performed at least two independent times.

Another series deals with T2, MphH (Brachybacterium faecium, UniProt C7MEP1).
T2 construct: pMCSG53, N-terminal His6 tag and TEV site, crystallized
Description: X-ray crystal structure. Type of series: binding. The settings on record: nucleotide site; GDP + Pi; crystallized with 5 mM azithromycin and 5 mM GMPPCP.

Another series deals with T3, MphI.
T3 construct: full-length, His-tagged in pET22b, expressed in E. coli BL21(DE3), Ni-NTA purified; primers span nt 1-927
In words: PK/LDH-coupled continuous assay. In kind it is biochemical, Paenibacillus sp. LC231. The settings on record: 10 mM MgCl2, 40 mM KCl, pH 7.5.

A further series addresses T4, MphB (Escherichia coli, UniProt A0A0H3EUF3).
T4 construct: codon-optimized gene, N-terminal His tag in pET28a, expressed in E. coli BL21(DE3), Ni-NTA purified
In words: biochemical. The arrangement: PK/LDH-coupled continuous assay of macrolide phosphorylation; steady-state kinetics, NADH absorbance. How it is done: (§1) Steady-state kinetics for Mphs were measured using the continuous PK/LDH-coupled assay[27],[32],[36],[71]. Reactions were performed in 96-well plates (Nunc, Thermo Scientific) using Spectramax Plus384 (Molecular Devices) in duplicate. Individual reactions were 100 µL and contained 50 mM HEPES pH 7.5, 40 mM KCl, 10 mM MgCl2, 0.2 mM NADH, 3.5 mM PEP, and 4.8 U PK/LDH (pyruvate kinase/lactate dehydrogenase). […] For determining the Km for macrolides, GTP was maintained at 200 µM and macrolides were varied between 0.49 µM and 1000 µM. Enzyme efficiency varied considerably between substrates, and therefore some enzymes were used at different concentrations depending on the substrate in order to produce a linear range suitable for Km determination. These concentrations were as follows; MphB 140 nM (most substrates), MphB 36 nM (josamycin), MphI 45 nM (descladinose macrolides), MphI 1.44 µM (C3 cladinose macrolides), Azi_1.1 90 nM (all substrates), Ery_1 (all substrates), MphK 680 nM (all substrates), MphIS111R/T166E/P211L 90 nM (descladinose macrolides), MphIS111R/T166E/P211L 1.43 µM (C3 cladinose macrolides), MphIM40A/S111R/T166E 22 nM (descladinose macrolides), MphIM40A/S111R/T166E 430 nM (C3 cladinose macrolides), MphIS111R/T166E 22 nM (descladinose macrolides), MphIS111R/T166E 1.43 µM (C3 cladinose macrolides). Enzyme kinetics experiments were performed at least two independent times. Steady-state kinetics of Mphs

Series [2] relates to CC[C@H]1OC(=O)[C@H](C)[C@@H](O[C@H]2C[C@@](C)(OC)[C@@H](O)[C@H](C)O2)[C@H](C)[C@@H](O[C@@H]2O[C@H](C)C[C@H](N(C)C)[C@H]2O)[C@](C)(O)C[C@@H](C)C(=O)[C@H](C)[C@@H](O)[C@]1(C)O. In words: PK/LDH-coupled continuous assay. In kind it is biochemical, Escherichia coli. Particulars: 200 uM GTP, 10 mM MgCl2, 40 mM KCl, pH 7.5.
Series [3] relates to CC[C@H]1OC(=O)[C@H](C)C(=O)[C@H](C)[C@@H](O[C@@H]2O[C@H](C)C[C@H](N(C)C)[C@H]2O)[C@](C)(OC)C[C@@H](C)C(=O)[C@H](C)[C@H]2N(CCCCn3cnc(-c4cccnc4)c3)C(=O)O[C@]12C. Description: PK/LDH-coupled continuous assay. In kind it is biochemical, Escherichia coli. The settings on record: 200 uM GTP, 10 mM MgCl2, 40 mM KCl, pH 7.5.
Series [4] has as its system CC[C@H]1OC(=O)[C@H](C)[C@@H](O[C@H]2C[C@@](C)(OC)[C@@H](O)[C@H](C)O2)[C@H](C)[C@@H](O[C@@H]2O[C@H](C)C[C@H](N(C)C)[C@H]2O)[C@](C)(O)C[C@@H](C)CN(C)[C@H](C)[C@@H](O)[C@]1(C)O. Description: PK/LDH-coupled continuous assay. Type of series: biochemical, Escherichia coli. The settings on record: 200 uM GTP, 10 mM MgCl2, 40 mM KCl, pH 7.5.
Series [5] concerns Nc1nc2c(ncn2[C@@H]2O[C@H](COP(=O)(O)OP(=O)(O)OP(=O)(O)O)[C@@H](O)[C@H]2O)c(=O)[nH]1. Description: PK/LDH-coupled continuous assay. Type of series: biochemical, Escherichia coli. Particulars: 100 uM telithromycin, 10 mM MgCl2, 40 mM KCl, pH 7.5.
Series [6] concerns CC[C@H]1OC(=O)C[C@@H](O)[C@H](C)[C@@H](O[C@@H]2O[C@H](C)[C@@H](O[C@H]3C[C@@](C)(O)[C@@H](O)[C@H](C)O3)[C@H](N(C)C)[C@H]2O)[C@@H](CC=O)C[C@@H](C)C(=O)/C=C/C(C)=C/[C@@H]1CO[C@@H]1O[C@H](C)[C@@H](O)[C@@H](OC)[C@H]1OC. Description: purified protein, by the assay type. The arrangement: continuous PK/LDH-coupled NADH kinase assay, steady-state Km, macrolide or GTP varied. Particulars: pH 7.5. As to the method:
as §1, with “times.” for “times. Steady-state kinetics of Mphs”

For series [7], the system named is CC[C@H]1OC(=O)[C@H](C)[C@@H](O[C@H]2C[C@@](C)(OC)[C@@H](O)[C@H](C)O2)[C@H](C)[C@@H](O[C@@H]2O[C@H](C)C[C@H](N(C)C)[C@H]2O)[C@](C)(O)C[C@@H](C)/C(=N\OCOCCOC)[C@H](C)[C@@H](O)[C@]1(C)O. Description: purified protein, by the assay type. The arrangement: continuous PK/LDH-coupled NADH kinase assay, steady-state Km, macrolide or GTP varied. The settings on record: pH 7.5. How it is done: as §1, with “times.” for “times. Steady-state kinetics of Mphs”

For series [8], the system named is CC[C@H]1OC(=O)[C@H](C)C(=O)[C@H](C)[C@@H](O[C@@H]2O[C@H](C)C[C@H](N(C)C)[C@H]2O)[C@](C)(OC)C[C@@H](C)C(=O)[C@H](C)[C@H]2N(CCCCn3cnc(-c4cccnc4)c3)C(=O)O[C@]12C. Description: PK/LDH-coupled continuous assay. The settings on record: 200 uM GTP, 10 mM MgCl2, 40 mM KCl, pH 7.5. In kind it is biochemical, Bacillus subtilis.
The test system of series [9] is CC[C@H]1OC(=O)[C@H](C)[C@@H](O[C@H]2C[C@@](C)(OC)[C@@H](O)[C@H](C)O2)[C@H](C)[C@@H](O[C@@H]2O[C@H](C)C[C@H](N(C)C)[C@H]2O)[C@](C)(O)C[C@@H](C)CN(C)[C@H](C)[C@@H](O)[C@]1(C)O. Description: PK/LDH-coupled continuous assay. In kind it is biochemical, Bacillus subtilis. Particulars: 200 uM GTP, 10 mM MgCl2, 40 mM KCl, pH 7.5.
Series [10] concerns Nc1nc2c(ncn2[C@@H]2O[C@H](COP(=O)(O)OP(=O)(O)OP(=O)(O)O)[C@@H](O)[C@H]2O)c(=O)[nH]1. Description: PK/LDH-coupled continuous assay. In kind it is biochemical, Bacillus subtilis. Particulars: 100 uM telithromycin, 10 mM MgCl2, 40 mM KCl, pH 7.5.

Converted amounts (≈) assume the structure as drawn.

The values below come from PMC5760710, “The evolution of substrate discrimination in macrolide antibiotic resistance enzymes” (Nature Communications, 2018).

Compound `CC[C@H]1OC(=O)[C@H](C)[C@@H](O[C@H]2C[C@@](C)(OC)[C@@H](O)[C@H](C)O2)[C@H](C)[C@@H](O[C@@H]2O[C@H](C)C[C@H](N(C)C)[C@H]2O)[C@](C)(OC)C[C@@H](C)C(=O)[C@H](C)[C@@H](O)[C@]1(C)O` [Clarithromycin] showed an MIC in series [1] of 0.5 µg/mL (≈ 0.668 µM).
Turning to `Nc1nc2c(ncn2[C@@H]2O[C@H](COP(=O)(O)OP(=O)(O)O)[C@@H](O)[C@H]2O)c(=O)[nH]1` [GDP], the X-ray crystal structure entry at MphH is “MphH (native) GDP + Pi complex (5UXC)”.
In general, Km refers to the concentration of substrate that gives half-maximal velocity. Regarding `Nc1nc2c(ncn2[C@@H]2O[C@H](COP(=O)(O)OP(=O)(O)OP(=O)(O)O)[C@@H](O)[C@H]2O)c(=O)[nH]1` [GTP], the Km in the series with MphI (100 uM telithromycin) came to 10 ± 1 µM.
For `NC[C@H]1O[C@H](O[C@H]2[C@H](O)[C@@H](O[C@H]3O[C@H](CO)[C@@H](O)[C@H](N)[C@H]3O)[C@H](N)C[C@@H]2N)[C@H](O)[C@@H](O)[C@@H]1O` [Kanamycin], the MIC in [1] was 1 µg/mL (≈ 2.06 µM).
By Ki is commonly meant the equilibrium dissociation constant of an inhibitor or competing ligand from its target. High values mean a looser hold on the target, low ones a stronger hold on the target. The compound `CC[C@H]1OC(=O)C[C@@H](O)[C@H](C)[C@@H](O[C@@H]2O[C@H](C)[C@@H](O[C@H]3C[C@@](C)(O)[C@@H](O)[C@H](C)O3)[C@H](N(C)C)[C@H]2O)[C@@H](CC=O)C[C@@H](C)C(=O)/C=C/C(C)=C/[C@@H]1CO[C@@H]1O[C@H](C)[C@@H](O)[C@@H](OC)[C@H]1OC` [Tylosin] registered an MIC in series [1] of 2 µg/mL (≈ 2.18 µM). For the same compound, the Ki on MphB turned out to be 350 ± 160 µM.
For `CC[C@H]1OC(=O)[C@H](C)[C@@H](O[C@H]2C[C@@](C)(OC)[C@@H](O)[C@H](C)O2)[C@H](C)[C@@H](O[C@@H]2O[C@H](C)C[C@H](N(C)C)[C@H]2O)[C@](C)(O)C[C@@H](C)C(=O)[C@H](C)[C@@H](O)[C@]1(C)O` [erythromycin], in [1], the MIC was found to be 0.5 µg/mL (≈ 0.681 µM). The Km in the series with MphI (200 uM GTP) came to 110 ± 10 µM.
On MphB, `CC[C@H]1OC(=O)[C@H](C)[C@@H](O[C@H]2C[C@@](C)(OC)[C@@H](O)[C@H](C)O2)[C@H](C)[C@@H](O[C@@H]2O[C@H](C)C[C@H](N(C)C)[C@H]2O)[C@](C)(O)C[C@@H](C)/C(=N\OCOCCOC)[C@H](C)[C@@H](O)[C@]1(C)O` [roxithromycin] had a Ki of 960 ± 510 µM. Further, the Km with MphI (200 uM GTP) was 32 ± 4 µM.
In turn, `CC[C@H]1OC(=O)[C@H](C)C(=O)[C@H](C)[C@@H](O[C@@H]2O[C@H](C)C[C@H](N(C)C)[C@H]2O)[C@](C)(OC)C[C@@H](C)C(=O)[C@H](C)[C@H]2N(CCCCn3cnc(-c4cccnc4)c3)C(=O)O[C@]12C` [telithromycin] had an MIC in [1] of 0.125 µg/mL (≈ 0.154 µM). The Km with MphI (200 uM GTP) was 3 ± 0.5 µM.
By kcat is commonly meant the number of substrate molecules converted per active site and unit of time at saturation. As for “MphB (Escherichia coli O83:H1 str. NRG 857C)”, the Km is 1.6 ± 0.2 µM in [2], 6.6 ± 1.8 µM in series [3], 2.9 ± 0.36 µM in [4] and 8.3 ± 0.45 µM in series [5]. Further, the kcat in series [2] was found to be 0.0412 ± 0.0009 s⁻¹; in [3] it was 0.77 ± 0.04 s⁻¹; in series [4], 0.189 ± 0.004 s⁻¹; in series [5] it was 0.602 ± 0.008 s⁻¹.
What is called kcat/Km is the turnover number divided by the Michaelis constant. With “MphK (Bacillus subtilis subsp. subtilis str. 168)”, the Km in [6] turned out to be 6.3 ± 2.4 µM; in series [7], 100 ± 25 µM; in series [8], 4.2 ± 0.45 µM; in series [9] it was 940 ± 320 µM; in series [10] it was 17 ± 1 µM. In addition, the kcat was determined as 0.0022 ± 0.0002 s⁻¹ in series [6]; 0.005 ± 0.0004 s⁻¹ in series [7]; 0.056 ± 0.001 s⁻¹ in series [8]; 0.025 ± 0.005 s⁻¹ in series [9]; 0.0491 ± 0.0004 s⁻¹ in series [10]. Besides, the kcat/Km in series [6] stood at 350 M⁻¹ s⁻¹; in series [7] it was 49 M⁻¹ s⁻¹.
